Changes are numbered by the printed parent chain. Numbers in names are those of the source. One block for each molecule: values may come before it.
What was measured:
[1] = molecular target: actKR (actinorhodin type II polyketide ketoreductase) (Streptomyces coelicolor, UniProt P16544, R93A); experiment: NADPH fluorescence titration; format: binding
[2] = molecular target: actKR (actinorhodin type II polyketide ketoreductase) (Streptomyces coelicolor, UniProt P16544, R177A); experiment: NADPH fluorescence titration; format: binding
[3] = molecular target: actKR (actinorhodin type II polyketide ketoreductase) (Streptomyces coelicolor, UniProt P16544, R220A); experiment: NADPH fluorescence titration; format: binding
[4] = molecular target: actKR (actinorhodin type II polyketide ketoreductase) (Streptomyces coelicolor, UniProt P16544, R65A); experiment: NADPH fluorescence titration; format: binding
[5] = molecular target: actKR (actinorhodin type II polyketide ketoreductase) (Streptomyces coelicolor, UniProt P16544, R38A); experiment: NADPH fluorescence titration; format: binding
[6] = molecular target: actKR (actinorhodin type II polyketide ketoreductase) (Streptomyces coelicolor, UniProt P16544); experiment: NADPH fluorescence titration; format: binding
[7] = substrate: O=C1CCC[C@H]2CCCC[C@H]12; experiment: purified protein; format: biochemical, Streptomyces coelicolor; conditions: co-substrate NADPH

actKR (actinorhodin type II polyketide ketoreductase) (Streptomyces coelicolor, UniProt P16544), sequence (P16544 whole entry): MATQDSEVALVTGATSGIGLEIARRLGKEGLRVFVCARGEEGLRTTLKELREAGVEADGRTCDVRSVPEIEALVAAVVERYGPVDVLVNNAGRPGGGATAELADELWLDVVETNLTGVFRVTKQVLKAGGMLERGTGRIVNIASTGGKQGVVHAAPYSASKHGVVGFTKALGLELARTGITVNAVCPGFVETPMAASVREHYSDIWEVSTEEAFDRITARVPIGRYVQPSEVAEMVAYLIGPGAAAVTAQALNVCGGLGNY
actKR (actinorhodin type II polyketide ketoreductase) (Streptomyces coelicolor, UniProt P16544, R93A), sequence (P16544 whole entry R93A): as the sequence (P16544 whole entry) above, with R93A counted along it
actKR (actinorhodin type II polyketide ketoreductase) (Streptomyces coelicolor, UniProt P16544, R38A), sequence (P16544 whole entry R38A): as the sequence (P16544 whole entry) above, with R38A counted along it
actKR (actinorhodin type II polyketide ketoreductase) (Streptomyces coelicolor, UniProt P16544, R177A), sequence (P16544 whole entry R177A): as the sequence (P16544 whole entry) above, with R177A counted along it
actKR (actinorhodin type II polyketide ketoreductase) (Streptomyces coelicolor, UniProt P16544, R65A), sequence (P16544 whole entry R65A): as the sequence (P16544 whole entry) above, with R65A counted along it
actKR (actinorhodin type II polyketide ketoreductase) (Streptomyces coelicolor, UniProt P16544, R220A), sequence (P16544 whole entry R220A): as the sequence (P16544 whole entry) above, with R220A counted along it

Kd [1]: 6430 ± 680 nM
Kd [2]: 1170 ± 100 nM
Kd [3]: 1990 ± 160 nM
Kd [4]: 1830 ± 210 nM
Kd [5]: 4300 ± 400 nM
Kd [6]: 1520 ± 90 nM
Molecule: NC(=O)C1=CN([C@@H]2O[C@H](COP(=O)(O)OP(=O)(O)OC[C@H]3O[C@@H](n4cnc5c(N)ncnc54)[C@H](OP(=O)(O)O)[C@@H]3O)[C@@H](O)[C@H]2O)C=CC1 [NADPH]

B1: actKR (actinorhodin type II polyketide ketoreductase) (Streptomyces coelicolor A3(2); F189A) (protein)
chain: MATQDSEVALVTGATSGIGLEIARRLGKEGLRVFVCARGEEGLRTTLKELREAGVEADGRTCDVRSVPEIEALVAAVVERYGPVDVLVNNAGRPGGGATAELADELWLDVVETNLTGVFRVTKQVLKAGGMLERGTGRIVNIASTGGKQGVVHAAPYSASKHGVVGFTKALGLELARTGITVNAVCPGAVETPMAASVREHYSDIWEVSTEEAFDRITARVPIGRYVQPSEVAEMVAYLIGPGAAAVTAQALNVCGGLGNY
Km [7]: 8630 ± 2010 µM
kcat [7]: 0.049 ± 0.005 s⁻¹
kcat/Km [7]: 5.7 ± 1.5 M⁻¹ s⁻¹

B2: actKR (actinorhodin type II polyketide ketoreductase) (Streptomyces coelicolor A3(2); V198A) (protein)
chain: B1 chain with A189F, V198A
Km [7]: 15500 ± 1490 µM
kcat [7]: 0.24 ± 0.01 s⁻¹
kcat/Km [7]: 16 ± 2 M⁻¹ s⁻¹

B3: actKR (actinorhodin type II polyketide ketoreductase) (Streptomyces coelicolor A3(2)) (protein)
chain: B1 chain with A189F
Km [7]: 760 ± 90 µM
kcat [7]: 2.55 ± 0.12 s⁻¹
kcat/Km [7]: 3230 ± 320 M⁻¹ s⁻¹

B4: actKR (actinorhodin type II polyketide ketoreductase) (Streptomyces coelicolor A3(2); M194W) (protein)
chain: B1 chain with A189F, M194W
Km [7]: 3220 ± 650 µM
kcat [7]: 0.43 ± 0.06 s⁻¹
kcat/Km [7]: 130 ± 30 M⁻¹ s⁻¹

B5: actKR (actinorhodin type II polyketide ketoreductase) (Streptomyces coelicolor A3(2); T145A) (protein)
chain: B1 chain with T145A, A189F
Km [7]: 420 ± 60 µM
kcat [7]: 0.18 ± 0.008 s⁻¹
kcat/Km [7]: 420 ± 60 M⁻¹ s⁻¹

B6: actKR (actinorhodin type II polyketide ketoreductase) (Streptomyces coelicolor A3(2); D109R) (protein)
chain: B1 chain with D109R, A189F
Km [7]: 1250 ± 400 µM
kcat [7]: 0.078 ± 0.01 s⁻¹
kcat/Km [7]: 62 ± 21 M⁻¹ s⁻¹
